This is an account of results in the supplement of paper PMC11780869.

For this data set, the system named is Bacillus subtilis. In words: cleaved RNA product abundance (RNA/gDNA barcode ratio) relative to median wild-type variant (ratio to wild type); higher = more accumulation of the downstream cleavage product. The settings on record: cleavage site: cggR-gapA (positions -7 to +36 mutated). The method in brief: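 Cleaved product abundance is expressed as the RNA:gDNA barcode ratio per construct, scaled to the median construct carrying the unmutated site. The constructs were barcoded, mutagenized RNase Y cleavage-site windows in truncated aprE or tetM reporter mRNAs integrated into the B. subtilis chromosome. Cultures grew in LB at 37°C from OD600 0.0003 to 0.3 before cleaved RNA was gel-selected and barcode-sequenced.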

Where [1] appears, read: experiment (reporter, strain, medium): exp 4a: truncated aprE reporter, strain BJT201 with 2% xylose (RNase J1 expressed).
Setting [2] is: experiment (reporter, strain, medium): exp 2b: truncated aprE reporter, strain BJT200.

For the sequence “ACAGACGAAGGAGCCGCAAAGGAGTTATTAAGTGATGAATAATCCCTCAATATAAATATCTCTCACTTATTTAAA”, the “cleaved RNA product abundance” value under setting [1] is 0.162.

On to “ACAGACGAAGGAGCCGCAAAGGAGTTATTAATGGATGAATAATCCCTCAATATAAATATCTCTCACTTATTTAAA”, for which the “cleaved RNA product abundance” value under setting [1] amounted to 0.114.

Consider “ACAGACGAAGGAGCCGCAAAGGAGTTTTTAAGGGATGAATAATCCCTCAATATAAATATCTCTCACTTATTTAAA”, for which the “cleaved RNA product abundance” value under setting [1] was 0.369.

Turning to “ACAGACGAAGGAGCCGCAAAGTAATTATTAAGGGATGAATAATCCCTCAATATAAATATCTCTCACTTATTTAAA”, the “cleaved RNA product abundance” value under setting [1] came out at 0.645.

With “ACAGACGAAGGAGCCGCAAAGTACTTATTAAGGGATGAATAATCCCTCAATATAAATATCTCTCACTTATTTAAA”, the “cleaved RNA product abundance” value by setting is: under setting [2], 0.437; under setting [1], 0.803.

As to “ACAGACGAAGGAGCCGCAAAGTAGTAATTAAGGGATGAATAATCCCTCAATATAAATATCTCTCACTTATTTAAA”, under setting [1], the “cleaved RNA product abundance” value turned out to be 0.191.

For the sequence “ACAGACGAAGGAGCCGCAAAGTAGTTAATAAGGGATGAATAATCCCTCAATATAAATATCTCTCACTTATTTAAA”, the “cleaved RNA product abundance” value by setting is: under setting [2], 0.292; under setting [1], 0.433.

With “ACAGACGAAGGAGCCGCAAAGTAGTTAATAATGGATGAATAATCCCTCAATATAAATATCTCTCACTTATTTAAA”, the “cleaved RNA product abundance” value under setting [1] was found to be 0.0855.

As for “ACAGACGAAGGAGCCGCAAAGTAGTTATAAAGGGATGAATAATCCCTCAATATAAATATCTCTCACTTATTTAAA”, the “cleaved RNA product abundance” value under setting [1] is 0.301.

Regarding “ACAGACGAAGGAGCCGCAAAGTAGTTATTAAAGGATGAATAATCCATCAATATAAATATCTCTCACTTATTTAAA”, under setting [1], the “cleaved RNA product abundance” value stood at 0.153.

Turning to “ACAGACGAAGGAGCCGCAAAGTAGTTATTAAAGGATGAATAATCCCTCAATATAAATATCTCTCACTTATTTAAA”, under setting [1], the “cleaved RNA product abundance” value turned out to be 0.208.

Regarding “ACAGACGAAGGAGCCGCAAAGTAGTTATTAACGGATGAATAATCCCTCAATATAAATATCTCTCACTTATTTAAA”, the “cleaved RNA product abundance” value under setting [1] came out at 0.164.

Consider “ACAGACGAAGGAGCCGCAAAGTAGTTATTAAGAGATGAATAATCCCTCAATATAAATATCTCTCACTTATTTAAA”, for which the “cleaved RNA product abundance” value under setting [2] was found to be 0.126 and the “cleaved RNA product abundance” value under setting [1] was determined as 0.124.

As for “ACAGACGAAGGAGCCGCAAAGTAGTTATTAAGCGATGAATAATCCCTCAATATAAATATCTCTCACTTATTTAAA”, the “cleaved RNA product abundance” value worked out at 0.0839 under setting [2] and 0.0692 under setting [1].

With “ACAGACGAAGGAGCCGCAAAGTAGTTATTAAGGAATGAATAATCCCTCAATATAAATATCTCTCACTTATTTAAA”, the “cleaved RNA product abundance” value under setting [1] was 0.148.

As for “ACAGACGAAGGAGCCGCAAAGTAGTTATTAAGGCATGAATAATCCCTCAATATAAATATCTCTCACTTATTTAAA”, the “cleaved RNA product abundance” value under setting [2] was found to be 0.101 and the “cleaved RNA product abundance” value under setting [1] was 0.124.

With “ACAGACGAAGGAGCCGCAAAGTAGTTATTAAGGGAGGAATAATCCCTCAATATAAATATCTCTCACTTATTTAAA”, the “cleaved RNA product abundance” value under setting [1] is 0.557.

For the sequence “ACAGACGAAGGAGCCGCAAAGTAGTTATTAAGGGATAAATAATCCCTCAATATAAATATCTCTCACTTATTTAAA”, under setting [1], the “cleaved RNA product abundance” value was 0.9.

For “ACAGACGAAGGAGCCGCAAAGTAGTTATTAAGGGATCAATAATCCCTCAATATAAATATCTCTCACTTATTTAAA”, the “cleaved RNA product abundance” value under setting [1] came to 1.25.

As to “ACAGACGAAGGAGCCGCAAAGTAGTTATTAAGGGATGAACAATCCCTCAATATAAATATCTCTCACTTATTTAAA”, the “cleaved RNA product abundance” value under setting [1] worked out at 0.763.

With “ACAGACGAAGGAGCCGCAAAGTAGTTATTAAGGGATGAATAACCCCTCAATATAAATATCTCTCACTTATTTAAA”, the “cleaved RNA product abundance” value under setting [1] is 0.762.

With “ACAGACGAAGGAGCCGCAAAGTAGTTATTAAGGGATGAATAAGCCCTCAATATAAATATCTCTCACTTATTTAAA”, the “cleaved RNA product abundance” value under setting [1] was 0.448.

With “ACAGACGAAGGAGCCGCAAAGTAGTTATTAAGGGATGAATAATACCTCAATATAAATATCTCTCACTTATTTAAA”, the “cleaved RNA product abundance” value is, setting by setting: under setting [2], 0.155; under setting [1], 0.176.
